Experimental data published in article doi:10.1101/2025.09.07.674715.

Target: GAPS4a of GAPS4^MAVP-R (Vibrio parahaemolyticus MAVP-R) (Vibrio parahaemolyticus MAVP-R)
Assay: SEC-MALS

GAPS4b of GAPS4^MAVP-R (Vibrio parahaemolyticus MAVP-R) (natural protein)
stoichiometry N (GAPS4b per GAPS4a (2:2)): 1
